Measured values from US12194057B2, “NXTAR-derived oligonucleotides and uses thereof” (Washington University, priority 2020, dated 2025).

Assays:
AR = test: Immunoblotting of AR protein in prostate cancer cells; format: cell-based, human
Method: Cells were harvested, lysed by sonication in receptor lysis buffer (see e.g., Mahajan et al. (2010) PLoS One) and 20-50 μg of protein lysates were fractionated by SDS-PAGE, and transferred onto a PVDF membrane (Immobilon, Cat #IPVH00010). After blocking in 5% nonfat dry milk (RPI, Cat #M17200) (or 3% BSA, Goldbio, Cat #A-420-500), membranes were incubated with the following monoclonal antibodies: AR (SCBT, Cat #sc-7305; RRID:AB 626671), pY276-AR (29), ACK1 (SCBT, sc-28336; RRID:AB 626629), pACK1 (Upstate, 09-142; RRID:AB 612088), EZH2, and Actin. The signals were visualized by using the enhanced chemiluminescence (ECL; Pierce, 32106) system.

EZH2 = target: T1, EZH2 (Homo sapiens, UniProt Q15910); test: Pull-down from VCaP cell lysates with biotinylated oligos, immunoblotting for EZH2; format: binding; settings: VCaP cells with retroviral expression of NXTAR
T1 construct: endogenous in cells; host or cells: VCaP cells (some retrovirally infected to over-express NXTAR lncRNA)
Method: The biotinylated oligonucleotides were incubated with lysates (2 h), and the lysates were incubated with streptavidin magnetic beads overnight. Beads attached to RNAs were divided equally and processed for either RNA isolation or western blotting. For RNA isolation, beads were washed three times and then separated using proteinase K treatment. RNA was then isolated and purified, and DNA was digested in the process. The real-time quantitative RT-PCR was performed on isolated RNA to check the efficiency of pull-down of NXTAR RNA. The remaining beads were heated at 80° C. for 5 min in loading buffer, followed by western blotting. The blots were probed with EZH2 (CST, 5246S; RRID:AB_10694683) antibody and Actin (SCBT, sc-47778; RRID:AB_2714189) was used as the loading control.
Biotin-labeled NXTAR-N5 (complementary to the AR promoter) and globin oligos were synthesized (IDT) (see e.g., TABLE 1). ChIRP was performed using lysate from formaldehyde-fixed VCaP cells and oligos that were immobilized to streptavidin beads, as described earlier (see e.g., Chu and Chang (2016) Methods Mol Bio). The amount of the chromatin DNA was determined by real-time PCR. For detection of NXTAR-N5/EZH2 binding, biotin-labeled NXTAR-N5 oligo and control globin oligo were incubated with VCaP cell lysates and were subjected to chromatin pull-down, followed by immunoblotting with EZH2 antibodies.

VCaP and 22Rv1 cells = test: Proliferation assay, viable cells by trypan blue exclusion; format: cell-based, human
Method: NXTAR-N5 oligonucleotide was synthesized by IDT, and the oligonucleotide sequence is provided in TABLE 1 and FIG. 7C (* represents phosphorothioate bond modifications to avoid degradation by exonucleases). Equal numbers of VCaP and 22Rv1 cells were transfected with NXTAR-N5 or globin-derived oligonucleotide using X-tremeGENE360 (Sigma-Aldrich, Cat #08724121001), and the number of live cells was counted 96 h post-transfection using trypan blue exclusion method (Sigma, Cat #T8154). RNA was prepared from these cells, and qRT-PCR [SYBR PremixEx Taq II (Tli RNase H Plus)ROX, Clontech Takara, Cat #RR82LR] for AR and AR-V7 was performed as described earlier (see e.g., Mahajan et al. (2017) Cancer Cell).
The 22Rv1, VCaP, or LNCaP cells were retrovirally infected with control or NXTAR vectors and selected in puromycin medium containing 5% charcoal-stripped serum. Equal numbers of selected cells were seeded in 6-well plates followed by treatment with either (R)-9b, enzalutamide (Selleck Chemicals, Cat #S1250), or abiraterone (Selleck Chemicals, Cat #52246), and the number of viable cells was counted by trypan blue exclusion assay.

T1 sequence (Q15910 whole entry): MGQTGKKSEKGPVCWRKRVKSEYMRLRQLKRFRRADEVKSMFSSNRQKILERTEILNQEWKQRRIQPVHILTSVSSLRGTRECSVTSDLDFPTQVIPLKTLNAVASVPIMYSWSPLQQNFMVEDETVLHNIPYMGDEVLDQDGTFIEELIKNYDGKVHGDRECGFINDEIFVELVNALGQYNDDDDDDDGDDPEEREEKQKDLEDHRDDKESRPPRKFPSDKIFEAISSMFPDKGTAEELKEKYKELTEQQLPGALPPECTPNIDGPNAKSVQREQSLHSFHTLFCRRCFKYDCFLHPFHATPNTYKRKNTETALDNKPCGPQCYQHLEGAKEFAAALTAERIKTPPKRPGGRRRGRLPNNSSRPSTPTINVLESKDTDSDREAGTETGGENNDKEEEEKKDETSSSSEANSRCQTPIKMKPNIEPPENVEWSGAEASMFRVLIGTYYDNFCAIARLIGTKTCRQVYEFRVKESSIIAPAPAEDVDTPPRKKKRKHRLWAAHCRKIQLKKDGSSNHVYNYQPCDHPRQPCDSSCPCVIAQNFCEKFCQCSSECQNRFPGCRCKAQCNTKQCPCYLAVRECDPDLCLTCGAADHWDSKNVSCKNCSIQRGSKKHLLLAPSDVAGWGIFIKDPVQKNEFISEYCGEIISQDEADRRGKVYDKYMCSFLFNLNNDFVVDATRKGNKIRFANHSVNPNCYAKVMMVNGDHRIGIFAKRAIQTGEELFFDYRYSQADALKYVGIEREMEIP
T1 sequence (O75530 whole entry partner): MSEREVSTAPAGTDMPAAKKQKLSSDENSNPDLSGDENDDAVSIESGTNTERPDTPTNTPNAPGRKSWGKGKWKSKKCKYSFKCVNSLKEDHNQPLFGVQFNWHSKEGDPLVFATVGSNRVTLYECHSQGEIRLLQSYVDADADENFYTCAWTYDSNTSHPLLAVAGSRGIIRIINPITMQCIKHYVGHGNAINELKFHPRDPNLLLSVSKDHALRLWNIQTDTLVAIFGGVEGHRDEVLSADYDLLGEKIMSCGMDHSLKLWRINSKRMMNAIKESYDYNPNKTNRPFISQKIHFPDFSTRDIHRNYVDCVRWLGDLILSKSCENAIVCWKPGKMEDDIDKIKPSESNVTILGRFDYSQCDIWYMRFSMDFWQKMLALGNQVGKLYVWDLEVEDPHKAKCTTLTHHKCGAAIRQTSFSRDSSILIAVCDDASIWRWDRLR
T1 sequence (Q15022 whole entry partner): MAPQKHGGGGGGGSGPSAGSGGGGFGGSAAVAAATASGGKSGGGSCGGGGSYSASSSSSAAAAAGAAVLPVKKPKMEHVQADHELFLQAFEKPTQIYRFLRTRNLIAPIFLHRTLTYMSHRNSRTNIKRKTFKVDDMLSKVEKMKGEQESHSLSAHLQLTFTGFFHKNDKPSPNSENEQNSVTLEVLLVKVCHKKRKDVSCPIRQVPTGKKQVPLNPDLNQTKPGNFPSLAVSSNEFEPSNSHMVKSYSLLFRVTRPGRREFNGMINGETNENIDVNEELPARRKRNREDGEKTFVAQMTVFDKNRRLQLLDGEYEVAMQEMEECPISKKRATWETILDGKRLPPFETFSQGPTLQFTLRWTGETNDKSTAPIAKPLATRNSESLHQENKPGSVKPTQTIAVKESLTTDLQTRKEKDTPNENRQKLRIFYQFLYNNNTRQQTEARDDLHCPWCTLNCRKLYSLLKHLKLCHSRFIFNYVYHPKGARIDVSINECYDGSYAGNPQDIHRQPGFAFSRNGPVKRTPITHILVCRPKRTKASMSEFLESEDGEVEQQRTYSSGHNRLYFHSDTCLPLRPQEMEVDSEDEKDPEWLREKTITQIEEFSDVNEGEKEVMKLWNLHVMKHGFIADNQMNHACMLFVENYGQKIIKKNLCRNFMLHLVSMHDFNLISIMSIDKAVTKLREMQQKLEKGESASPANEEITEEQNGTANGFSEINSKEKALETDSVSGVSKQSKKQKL
T1 sequence (Q09028 whole entry partner): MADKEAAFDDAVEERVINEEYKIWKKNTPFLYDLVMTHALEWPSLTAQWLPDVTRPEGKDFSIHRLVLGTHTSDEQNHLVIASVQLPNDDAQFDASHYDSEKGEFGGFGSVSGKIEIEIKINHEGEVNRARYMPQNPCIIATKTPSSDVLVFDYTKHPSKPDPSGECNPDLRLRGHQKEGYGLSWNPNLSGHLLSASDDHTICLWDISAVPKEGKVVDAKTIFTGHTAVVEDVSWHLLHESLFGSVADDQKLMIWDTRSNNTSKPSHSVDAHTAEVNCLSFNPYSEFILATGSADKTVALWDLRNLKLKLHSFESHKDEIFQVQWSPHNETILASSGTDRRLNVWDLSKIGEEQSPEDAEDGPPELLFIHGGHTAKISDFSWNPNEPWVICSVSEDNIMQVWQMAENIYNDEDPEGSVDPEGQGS

B1: NXTAR: long non-coding RNA, 1476-nt transcript (SEQ ID NO: 58), expressed from retroviral or plasmid constructs (nucleic acid, listed as Homo sapiens)
chain: GGAAAAGGAAGGCTGCACAGAAGAACTGGCATTTGTGTTCTGCCTACAAAGCTGAAAAGGATTTCACCCAAATCAGGGAAGATCAGCCTTATGAGGTGGATATTATTGCCACAATAATTTTCCAGATGAAAAATGGAGGCCCAGAGATGTTAAGGAATTTGCCCAAGATCATGAAAAGACACTCTCCCCTATTGAGATGTCATGCAAGGATCAGTGCTGTGTGAAAATCCACATGAAGCAGGAAATGCAGGTGGTGGTGTCCAATCTGATTTCAAGATCTGAGAAGCTGTGCACTGCCTGAAAGGTATCTATTTAAGGTGTCACCAGACTCCTGCTCCACTCCTGCCCAAGGCCCAGCCCATCCAAGAGCAAAAGGCAAGTGGTGTTACAACCTTGGGATTTCCTGTATCTGCCCTCTTGCGGATAGCAGGACAGAGTCACAGCTGCATTAAATTCGCTTAAGACTTATTGAGACACTTCAACACTTCAACAACGACCTGTGAGATTAAGATTATTATTTTAAATTTACAGAAGGGGAAACTAAGAATTATAGACATGAAGTGACTCACCTATGACCACCTGGTGATAGAACCAGGACTAGAGCTCAGGTATGAAGATTTCTGGGGGAGTCCCTGAAAAAAAGGCTCCATATGGAATTACAATGTGGAAAAGGCCAAGGCCTCACCAACCCTTTTCTCTTCAACACCTGGATCCCTAAGTCCTTATTCGTAACCTCCTCTTTGGACAAGGTTTTGGTAGACAAAGCCAGAGCCTCTTGCACTGAGAAAGACAAATTCTCCTCTTGCAGTGAACCACAGGTAAATGCTCCAATAGAGAGTCCAAGCCAAACCTCCGGGTGTTATTCATGACCCAGGCAAGTCTGCTTTCTCATTCCCCCTATCTCTAGACCGTTTTCCATTTGGGCTTCCTTTTCTTCTTTTATCCTCAAAGAAACATGTTTCCTTCTAGTAGGTTTGGCTGCCACCACTAGGGTCCTGGCTACAACTGGCCCTCAGGTAACTCTCTCACCTCTGAGTTGGATAGTATCCTCTCTCGTCCCCATACACAAGTGTTTCTCTTCCCAGACACCTTCCTTACACAATTTCCCATTTCTTTCTCATCTCACCCTTGCTTTAATCAACATAGTTCTTTCCCCTGAGATTACTCTTCAGCCTTTCTTGTTGAAGCACTGCCCAGTGGTTCTCTTGGGATTTCCATTTCTCTCCCCTCAGCTCTCTTGGTACCAAATTCTGTAAGCTTCTCTGGTTTTTGGTTTCTCTTCCTTCTTTTCCTTCCAGGCAACATTTACTCAATCTAGGCTTGGATGATCAGGTACTTCTGCCAGCCTGCCCACTAGGGAACTCTGGGCTAGGAATATGTCTCAATGGCACCATTATATTTGGAAGGACGCTTCTGTATTTACACTGAACACACTAAAATACTAAACTTGAAGCCAAAATCCCCTCTCTGGCTCCA
AR protein (AR; 22Rv1 cells, NXTAR construct 0.25-2 μg, 48 hrs): dose-dependent downregulation of AR
AR protein (AR; LNCaP and 22Rv1 cells, NXTAR plasmid 24, 48 and 72 hrs): decreased upon NXTAR expression in a time-dependent manner
AR expression (protein) (AR; VCaP and 22Rv1 cells, NXTAR expression): loss of AR expression
EZH2 binding in RNA pull-down (EZH2): EZH2 could bind to NXTAR RNA
sensitivity to abiraterone (VCaP and 22Rv1 cells; 22Rv1 cells expressing NXTAR, 5 days): further sensitized them
proliferation upon enzalutamide treatment (VCaP and 22Rv1 cells; VCaP and 22Rv1 cells expressing NXTAR): significantly compromised proliferation
proliferation (VCaP and 22Rv1 cells; VCaP and 22Rv1 cells, NXTAR expression vs pBABE vector): severe loss of proliferation
